In PMC5432316:

target: recombinant gC1q domain of EMILIN1 (UniProt Q9Y6C2); assay: cell adhesion assay (CAFCA, Centrifugal Assay for Fluorescence-based Cell Adhesion); ligand as substrate in CAFCA miniplates; calcein AM-labelled cells centrifuged onto the substrate, 20 min at 37°C, then centrifuged at 500 rpm; bound cells read by fluorescence; for HaCat cells also with integrin blocking antibodies
UniProt Q9Y6C2, sequence (Q9Y6C2 22-1016): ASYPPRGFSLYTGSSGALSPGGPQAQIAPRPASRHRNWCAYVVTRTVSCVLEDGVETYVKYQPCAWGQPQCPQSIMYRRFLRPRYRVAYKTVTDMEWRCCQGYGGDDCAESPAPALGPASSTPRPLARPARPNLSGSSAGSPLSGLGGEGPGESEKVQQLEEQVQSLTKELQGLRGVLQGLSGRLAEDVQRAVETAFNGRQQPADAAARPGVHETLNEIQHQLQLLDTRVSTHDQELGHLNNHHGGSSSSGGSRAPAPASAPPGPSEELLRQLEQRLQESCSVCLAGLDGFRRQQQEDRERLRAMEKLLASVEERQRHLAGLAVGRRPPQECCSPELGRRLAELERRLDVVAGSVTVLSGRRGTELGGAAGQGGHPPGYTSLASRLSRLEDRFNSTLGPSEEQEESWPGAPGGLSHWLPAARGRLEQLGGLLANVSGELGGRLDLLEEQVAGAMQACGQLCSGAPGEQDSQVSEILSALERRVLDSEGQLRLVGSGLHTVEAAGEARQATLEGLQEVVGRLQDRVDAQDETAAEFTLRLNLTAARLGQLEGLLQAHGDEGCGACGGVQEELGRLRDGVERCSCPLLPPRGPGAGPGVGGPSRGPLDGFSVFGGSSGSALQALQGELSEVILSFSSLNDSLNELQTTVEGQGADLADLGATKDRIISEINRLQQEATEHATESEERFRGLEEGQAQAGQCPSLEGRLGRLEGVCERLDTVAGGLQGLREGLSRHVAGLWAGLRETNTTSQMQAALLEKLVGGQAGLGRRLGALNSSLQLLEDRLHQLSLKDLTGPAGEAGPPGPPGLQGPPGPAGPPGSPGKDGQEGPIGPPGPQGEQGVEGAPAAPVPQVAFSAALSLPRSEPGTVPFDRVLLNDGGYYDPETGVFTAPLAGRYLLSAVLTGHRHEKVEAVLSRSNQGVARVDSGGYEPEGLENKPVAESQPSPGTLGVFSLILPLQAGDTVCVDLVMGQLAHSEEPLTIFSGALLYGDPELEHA

Row | percentage of adhesion | Substance
1 | 60% | α4β1 integrin on SW480 cells transfected with the cytoplasmic tail-deleted α4 chain mutant R974 (from UniProt P05556 21-798) (receptor)
2 | 60% | α4β1 integrin on SW480 cells transfected with the wild type α4 integrin chain (from UniProt P13612 34-1032; P05556 21-798) (receptor)
3 | 90% | α4β1 integrin on HT29 cells transfected with the wild type α4 integrin chain (from UniProt P13612 34-1032; P05556 21-798) (receptor)
4 | 90% | α4β1 integrin on HT29 cells transfected with the cytoplasmic tail-deleted α4 chain mutant R974 (from UniProt P05556 21-798) (receptor)
